# Reference: the Human Domainome abundance scans (Beltran et al. 2025)
# ± gives the uncertainty stated by the source.
# B1: POU domain, class 3, transcription factor 3, residues 320 to 388; numbered along this chain, P20264 (parent)
# chain: DDLEQFAKQFKQRRIKLGFTQADVGLALGTLYGNVFSQTTICRFEALQLSFKNMCKLKPLLNKWLEEAD
# Variants of: B1
# Assay: abundance fitness (aPCA) (normalised: wild type 0, dead -1); higher = more abundant; growth selection in yeast, the domain comes from the species named
# Settings: Homo sapiens
row,Variant,abundance fitness
1,DDGEQFAKQFKQRRIKLGFTQADVGLALGTLYGNVFSQTTICRFEALQLSFKNMCKLKPLLNKWLEEAD [L3G],-0.758 ± 0.18
2,DDYEQFAKQFKQRRIKLGFTQADVGLALGTLYGNVFSQTTICRFEALQLSFKNMCKLKPLLNKWLEEAD [L3Y],-0.242 ± 0.2
3,DDFEQFAKQFKQRRIKLGFTQADVGLALGTLYGNVFSQTTICRFEALQLSFKNMCKLKPLLNKWLEEAD [L3F],-0.454 ± 0.49
4,DDEEQFAKQFKQRRIKLGFTQADVGLALGTLYGNVFSQTTICRFEALQLSFKNMCKLKPLLNKWLEEAD [L3E],-0.43 ± 0.31
5,DDTEQFAKQFKQRRIKLGFTQADVGLALGTLYGNVFSQTTICRFEALQLSFKNMCKLKPLLNKWLEEAD [L3T],-0.981 ± 0.33
6,DDQEQFAKQFKQRRIKLGFTQADVGLALGTLYGNVFSQTTICRFEALQLSFKNMCKLKPLLNKWLEEAD [L3Q],-0.421 ± 0.38
7,DDWEQFAKQFKQRRIKLGFTQADVGLALGTLYGNVFSQTTICRFEALQLSFKNMCKLKPLLNKWLEEAD [L3W],-0.587 ± 0.17
8,DDVEQFAKQFKQRRIKLGFTQADVGLALGTLYGNVFSQTTICRFEALQLSFKNMCKLKPLLNKWLEEAD [L3V],-0.318 ± 0.11
9,DDIEQFAKQFKQRRIKLGFTQADVGLALGTLYGNVFSQTTICRFEALQLSFKNMCKLKPLLNKWLEEAD [L3I],-0.161 ± 0.27
10,DDREQFAKQFKQRRIKLGFTQADVGLALGTLYGNVFSQTTICRFEALQLSFKNMCKLKPLLNKWLEEAD [L3R],-0.937 ± 0.19
11,DDAEQFAKQFKQRRIKLGFTQADVGLALGTLYGNVFSQTTICRFEALQLSFKNMCKLKPLLNKWLEEAD [L3A],-1 ± 0.32
12,DDPEQFAKQFKQRRIKLGFTQADVGLALGTLYGNVFSQTTICRFEALQLSFKNMCKLKPLLNKWLEEAD [L3P],-0.755 ± 0.24
13,DLLEQFAKQFKQRRIKLGFTQADVGLALGTLYGNVFSQTTICRFEALQLSFKNMCKLKPLLNKWLEEAD [D2L],-0.272 ± 0.14
14,DVLEQFAKQFKQRRIKLGFTQADVGLALGTLYGNVFSQTTICRFEALQLSFKNMCKLKPLLNKWLEEAD [D2V],-0.95 ± 0.5
15,DWLEQFAKQFKQRRIKLGFTQADVGLALGTLYGNVFSQTTICRFEALQLSFKNMCKLKPLLNKWLEEAD [D2W],-0.111 ± 0.13
16,DMLEQFAKQFKQRRIKLGFTQADVGLALGTLYGNVFSQTTICRFEALQLSFKNMCKLKPLLNKWLEEAD [D2M],-0.252 ± 0.14
17,DKLEQFAKQFKQRRIKLGFTQADVGLALGTLYGNVFSQTTICRFEALQLSFKNMCKLKPLLNKWLEEAD [D2K],0.034 ± 0.12
18,DRLEQFAKQFKQRRIKLGFTQADVGLALGTLYGNVFSQTTICRFEALQLSFKNMCKLKPLLNKWLEEAD [D2R],-0.176 ± 0.089
19,DQLEQFAKQFKQRRIKLGFTQADVGLALGTLYGNVFSQTTICRFEALQLSFKNMCKLKPLLNKWLEEAD [D2Q],-0.159 ± 0.13
20,DPLEQFAKQFKQRRIKLGFTQADVGLALGTLYGNVFSQTTICRFEALQLSFKNMCKLKPLLNKWLEEAD [D2P],-0.339 ± 0.23
21,DSLEQFAKQFKQRRIKLGFTQADVGLALGTLYGNVFSQTTICRFEALQLSFKNMCKLKPLLNKWLEEAD [D2S],-0.119 ± 0.3
22,DTLEQFAKQFKQRRIKLGFTQADVGLALGTLYGNVFSQTTICRFEALQLSFKNMCKLKPLLNKWLEEAD [D2T],0.029 ± 0.13
23,DDLEQFAKTFKQRRIKLGFTQADVGLALGTLYGNVFSQTTICRFEALQLSFKNMCKLKPLLNKWLEEAD [Q9T],0.029 ± 0.097
24,DDLEQFAKKFKQRRIKLGFTQADVGLALGTLYGNVFSQTTICRFEALQLSFKNMCKLKPLLNKWLEEAD [Q9K],-0.046 ± 0.071
25,DDLEQFAKRFKQRRIKLGFTQADVGLALGTLYGNVFSQTTICRFEALQLSFKNMCKLKPLLNKWLEEAD [Q9R],-0.222 ± 0.066
26,DDLEQFAKVFKQRRIKLGFTQADVGLALGTLYGNVFSQTTICRFEALQLSFKNMCKLKPLLNKWLEEAD [Q9V],-0.231 ± 0.081

row,Variant,abundance fitness
1,DDLEQFAKNFKQRRIKLGFTQADVGLALGTLYGNVFSQTTICRFEALQLSFKNMCKLKPLLNKWLEEAD [Q9N],0.038 ± 0.12
2,DDLEQFAKWFKQRRIKLGFTQADVGLALGTLYGNVFSQTTICRFEALQLSFKNMCKLKPLLNKWLEEAD [Q9W],-0.2 ± 0.1
3,DDLEQFAKSFKQRRIKLGFTQADVGLALGTLYGNVFSQTTICRFEALQLSFKNMCKLKPLLNKWLEEAD [Q9S],-0.107 ± 0.082
4,DDLEQFAKEFKQRRIKLGFTQADVGLALGTLYGNVFSQTTICRFEALQLSFKNMCKLKPLLNKWLEEAD [Q9E],0.042 ± 0.12
5,DDLEQFAKCFKQRRIKLGFTQADVGLALGTLYGNVFSQTTICRFEALQLSFKNMCKLKPLLNKWLEEAD [Q9C],-0.457 ± 0.12
6,DDLEQFAKMFKQRRIKLGFTQADVGLALGTLYGNVFSQTTICRFEALQLSFKNMCKLKPLLNKWLEEAD [Q9M],0.128 ± 0.12
7,DDLEQFAKAFKQRRIKLGFTQADVGLALGTLYGNVFSQTTICRFEALQLSFKNMCKLKPLLNKWLEEAD [Q9A],-0.241 ± 0.1
8,DDLEQFAKGFKQRRIKLGFTQADVGLALGTLYGNVFSQTTICRFEALQLSFKNMCKLKPLLNKWLEEAD [Q9G],-0.205 ± 0.083
9,DDLEQFAKIFKQRRIKLGFTQADVGLALGTLYGNVFSQTTICRFEALQLSFKNMCKLKPLLNKWLEEAD [Q9I],-0.425 ± 0.26
10,DDLEQFAKYFKQRRIKLGFTQADVGLALGTLYGNVFSQTTICRFEALQLSFKNMCKLKPLLNKWLEEAD [Q9Y],0.052 ± 0.12
11,DDLEQFAKLFKQRRIKLGFTQADVGLALGTLYGNVFSQTTICRFEALQLSFKNMCKLKPLLNKWLEEAD [Q9L],-0.223 ± 0.043
12,DDLEQFAKQSKQRRIKLGFTQADVGLALGTLYGNVFSQTTICRFEALQLSFKNMCKLKPLLNKWLEEAD [F10S],-0.846 ± 0.28
13,DDLEQFAKQPKQRRIKLGFTQADVGLALGTLYGNVFSQTTICRFEALQLSFKNMCKLKPLLNKWLEEAD [F10P],-0.896 ± 0.25
14,DDLEQFAKQGKQRRIKLGFTQADVGLALGTLYGNVFSQTTICRFEALQLSFKNMCKLKPLLNKWLEEAD [F10G],-0.288 ± 0.12
15,DDLEQFAKQKKQRRIKLGFTQADVGLALGTLYGNVFSQTTICRFEALQLSFKNMCKLKPLLNKWLEEAD [F10K],-0.365 ± 0.36
16,DDLEQFAKQWKQRRIKLGFTQADVGLALGTLYGNVFSQTTICRFEALQLSFKNMCKLKPLLNKWLEEAD [F10W],-0.636 ± 0.39
17,DDLEQFAKQRKQRRIKLGFTQADVGLALGTLYGNVFSQTTICRFEALQLSFKNMCKLKPLLNKWLEEAD [F10R],-0.543 ± 0.16
18,DDLEQFAKQVKQRRIKLGFTQADVGLALGTLYGNVFSQTTICRFEALQLSFKNMCKLKPLLNKWLEEAD [F10V],-0.885 ± 0.2
19,DDLEQFAKQTKQRRIKLGFTQADVGLALGTLYGNVFSQTTICRFEALQLSFKNMCKLKPLLNKWLEEAD [F10T],-0.488 ± 0.17
20,DDLEQFAKQQKQRRIKLGFTQADVGLALGTLYGNVFSQTTICRFEALQLSFKNMCKLKPLLNKWLEEAD [F10Q],-0.698 ± 0.38
21,DDLEQFAKQMKQRRIKLGFTQADVGLALGTLYGNVFSQTTICRFEALQLSFKNMCKLKPLLNKWLEEAD [F10M],-0.631 ± 0.33
22,DDLEQFAKQCKQRRIKLGFTQADVGLALGTLYGNVFSQTTICRFEALQLSFKNMCKLKPLLNKWLEEAD [F10C],-0.338 ± 0.25
23,DDLEQFAKQNKQRRIKLGFTQADVGLALGTLYGNVFSQTTICRFEALQLSFKNMCKLKPLLNKWLEEAD [F10N],-0.705 ± 0.48
24,DDLEQFAKQAKQRRIKLGFTQADVGLALGTLYGNVFSQTTICRFEALQLSFKNMCKLKPLLNKWLEEAD [F10A],-0.776 ± 0.24
25,DDLEQFWKQFKQRRIKLGFTQADVGLALGTLYGNVFSQTTICRFEALQLSFKNMCKLKPLLNKWLEEAD [A7W],-0.87 ± 0.31
26,DDLEQFSKQFKQRRIKLGFTQADVGLALGTLYGNVFSQTTICRFEALQLSFKNMCKLKPLLNKWLEEAD [A7S],0.117 ± 0.11

row,Variant,abundance fitness
1,DDLEQFPKQFKQRRIKLGFTQADVGLALGTLYGNVFSQTTICRFEALQLSFKNMCKLKPLLNKWLEEAD [A7P],-0.722 ± 0.32
2,DDLEQFRKQFKQRRIKLGFTQADVGLALGTLYGNVFSQTTICRFEALQLSFKNMCKLKPLLNKWLEEAD [A7R],-0.69 ± 0.15
3,DDLEQFCKQFKQRRIKLGFTQADVGLALGTLYGNVFSQTTICRFEALQLSFKNMCKLKPLLNKWLEEAD [A7C],-0.198 ± 0.065
4,DDLEQFQKQFKQRRIKLGFTQADVGLALGTLYGNVFSQTTICRFEALQLSFKNMCKLKPLLNKWLEEAD [A7Q],-0.703 ± 0.23
5,DDLEQFMKQFKQRRIKLGFTQADVGLALGTLYGNVFSQTTICRFEALQLSFKNMCKLKPLLNKWLEEAD [A7M],-0.737 ± 0.19
6,DDLEQFDKQFKQRRIKLGFTQADVGLALGTLYGNVFSQTTICRFEALQLSFKNMCKLKPLLNKWLEEAD [A7D],-0.694 ± 0.27
7,DDLEQFIKQFKQRRIKLGFTQADVGLALGTLYGNVFSQTTICRFEALQLSFKNMCKLKPLLNKWLEEAD [A7I],-0.057 ± 0.11
8,DDLEQFGKQFKQRRIKLGFTQADVGLALGTLYGNVFSQTTICRFEALQLSFKNMCKLKPLLNKWLEEAD [A7G],-0.478 ± 0.11
9,DDLEQFVKQFKQRRIKLGFTQADVGLALGTLYGNVFSQTTICRFEALQLSFKNMCKLKPLLNKWLEEAD [A7V],-0.065 ± 0.068
10,DDLEQFLKQFKQRRIKLGFTQADVGLALGTLYGNVFSQTTICRFEALQLSFKNMCKLKPLLNKWLEEAD [A7L],-0.908 ± 0.36
11,DDLEQFTKQFKQRRIKLGFTQADVGLALGTLYGNVFSQTTICRFEALQLSFKNMCKLKPLLNKWLEEAD [A7T],-0.069 ± 0.24
12,DDLEQFFKQFKQRRIKLGFTQADVGLALGTLYGNVFSQTTICRFEALQLSFKNMCKLKPLLNKWLEEAD [A7F],-0.642 ± 0.2
13,DDLEQFAQQFKQRRIKLGFTQADVGLALGTLYGNVFSQTTICRFEALQLSFKNMCKLKPLLNKWLEEAD [K8Q],-0.061 ± 0.099
14,DDLEQFAIQFKQRRIKLGFTQADVGLALGTLYGNVFSQTTICRFEALQLSFKNMCKLKPLLNKWLEEAD [K8I],0.162 ± 0.33
15,DDLEQFAWQFKQRRIKLGFTQADVGLALGTLYGNVFSQTTICRFEALQLSFKNMCKLKPLLNKWLEEAD [K8W],-0.42 ± 0.19
16,DDLEQFAAQFKQRRIKLGFTQADVGLALGTLYGNVFSQTTICRFEALQLSFKNMCKLKPLLNKWLEEAD [K8A],0.001 ± 0.11
17,DDLEQFALQFKQRRIKLGFTQADVGLALGTLYGNVFSQTTICRFEALQLSFKNMCKLKPLLNKWLEEAD [K8L],0.022 ± 0.07
18,DDLEQFAEQFKQRRIKLGFTQADVGLALGTLYGNVFSQTTICRFEALQLSFKNMCKLKPLLNKWLEEAD [K8E],-0.019 ± 0.14
19,DDLEQFAMQFKQRRIKLGFTQADVGLALGTLYGNVFSQTTICRFEALQLSFKNMCKLKPLLNKWLEEAD [K8M],-0.106 ± 0.14
20,DDLEQFAGQFKQRRIKLGFTQADVGLALGTLYGNVFSQTTICRFEALQLSFKNMCKLKPLLNKWLEEAD [K8G],-0.561 ± 0.14
21,DDLEQFADQFKQRRIKLGFTQADVGLALGTLYGNVFSQTTICRFEALQLSFKNMCKLKPLLNKWLEEAD [K8D],-0.705 ± 0.48
22,DDLEQFASQFKQRRIKLGFTQADVGLALGTLYGNVFSQTTICRFEALQLSFKNMCKLKPLLNKWLEEAD [K8S],-0.738 ± 0.23
23,DDLEQFAVQFKQRRIKLGFTQADVGLALGTLYGNVFSQTTICRFEALQLSFKNMCKLKPLLNKWLEEAD [K8V],-0.424 ± 0.11
24,DDLEQFAHQFKQRRIKLGFTQADVGLALGTLYGNVFSQTTICRFEALQLSFKNMCKLKPLLNKWLEEAD [K8H],-0.306 ± 0.21
25,DDLEQFATQFKQRRIKLGFTQADVGLALGTLYGNVFSQTTICRFEALQLSFKNMCKLKPLLNKWLEEAD [K8T],-0.475 ± 0.24
26,DDLEQFAFQFKQRRIKLGFTQADVGLALGTLYGNVFSQTTICRFEALQLSFKNMCKLKPLLNKWLEEAD [K8F],-0.439 ± 0.33
